From FireProtDB (doi:10.1529/biophysj.104.051052) come the findings set out here.

The conditions of this data set: Canavalia ensiformis, pH 7, Fluorescence, HEPES 25 mM, CaCl2 15 mM, reversible: yes, whole UniProt chain shown; for denaturant m value: GdnHCl.

B1: Concanavalin-A wild type, P02866 (protein)
chain: MAISKKSSLFLPIFTFITMFLMVVNKVSSSTHETNALHFMFNQFSKDQKDLILQGDATTGTDGNLELTRVSSNGSPQGSSVGRALFYAPVHIWESSAVVASFEATFTFLIKSPDSHPADGIAFFISNIDSSIPSGSTGRLLGLFPDANVIRNSTTIDFNAAYNADTIVAVELDTYPNTDIGDPSYPHIGIDIKSVRSKKTAKWNMQNGKVGTAHIIYNSVDKRLSAVVSYPNADSATVSYDVDLDNVLPEWVRVGLSASTGLYKETNTILSWSFTSKLKSNEIPDIATVV
For B1, the denaturant m value runs as follows: (7 °C) 1.3 kcal/mol/M; (12 °C) 1.6 kcal/mol/M; (18 °C) 1.8 kcal/mol/M; (27 °C) 2.1 kcal/mol/M; (30 °C) 2.3 kcal/mol/M; (39 °C) 2.2 kcal/mol/M. In addition, the Tm (Thermal) was found to be 98.5 °C. Moreover, under “Thermal”, the “heat capacity change of unfolding” value stood at 4.2 kcal/mol/K. For the same protein, the “unfolding enthalpy (van 't Hoff)” value (Thermal) was found to be 179 kcal/mol.
